These results are taken from US20040072188A1 (Biogen, published 2004).

The target in experiment [1] is T1, human BAFF-R (JST576), full length, on cells (human, UniProt Q96RJ3 1-184).
T1 construct: also called pJST576 transfected cells; huBAFF-R
T1 sequence: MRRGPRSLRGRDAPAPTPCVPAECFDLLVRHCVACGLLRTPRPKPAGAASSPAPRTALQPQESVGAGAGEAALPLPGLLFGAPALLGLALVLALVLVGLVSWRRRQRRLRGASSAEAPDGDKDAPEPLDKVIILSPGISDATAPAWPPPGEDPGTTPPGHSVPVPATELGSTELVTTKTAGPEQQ
Kind of experiment: FACS on 293EBNA cells co-transfected with pJST576 and GFP reporter; anti-murine APRIL mAb, biotinylated anti-rat IgG2b, SAV-PE. The text has this: (§1) At 18-20 hr post-transfection, cells were detached, counted, and stained for FACS analysis similar to Example 5 with the following modifications. […] The cells were again washed, fixed with paraformaldehyde, and analyzed by FACS for GFP and PE positive cells.

The target of experiment [2] is T2, human TACI, full length, on transfected 293EBNA cells (CA336) (human, UniProt O14836 1-293).
T2 construct: whole, on cells; also called huTACI
T2 sequence (looked up): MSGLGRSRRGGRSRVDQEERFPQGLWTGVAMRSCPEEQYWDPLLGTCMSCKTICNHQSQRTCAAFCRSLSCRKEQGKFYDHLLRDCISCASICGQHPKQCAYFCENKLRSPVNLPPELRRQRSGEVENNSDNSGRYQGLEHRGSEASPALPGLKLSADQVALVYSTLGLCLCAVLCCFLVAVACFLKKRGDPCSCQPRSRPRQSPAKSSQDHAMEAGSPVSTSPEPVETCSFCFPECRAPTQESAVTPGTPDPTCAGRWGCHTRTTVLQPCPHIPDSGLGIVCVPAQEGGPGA
Kind of experiment: FACS on 293EBNA cells co-transfected with human TACI and GFP, 1 ug/ml myc-APRIL.
Source text: as §1

B1: murine recombinant soluble myc-APRIL (ligand, UniProt Q9D777 96-241, looked up)
chain: AVLTQKHKKKHSVLHLVPVNITSKADSDVTEVMWQPVLRRGRGLEAQGDIVRVWDTGIYLLYSQVLFHDVTFTMGQVVSREGQGRRETLFRCIRSMPSDPDRAYNSCYSAGVFHLHQGDIITVKIPRANAKLSLSPHGTFLGFVKL
notes: also called myc-muAPRIL; murine myc-APRIL; not shown: myc tag
Consider B1, for which the binding result in experiment [1] was “no binding (tested: 1 ug/ml)”; in experiment [2] it was “binds”.
